Article PMC8405992 (2021)
Each block holds one binder with its values, some of them ahead of it.

Experiments:
Assay in all cases: NMR titration
Dsk2-UBL 2-77 = target: T1, Dsk2-UBL 2-77 (Saccharomyces cerevisiae, UniProt P48510)
T1 chain: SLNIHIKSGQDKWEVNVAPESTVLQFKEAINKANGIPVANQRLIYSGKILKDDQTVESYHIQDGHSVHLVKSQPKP

Ubp6-UBL 2-81 = target: T2, Ubp6-UBL 2-81 (Saccharomyces cerevisiae, UniProt P43593)
T2 chain: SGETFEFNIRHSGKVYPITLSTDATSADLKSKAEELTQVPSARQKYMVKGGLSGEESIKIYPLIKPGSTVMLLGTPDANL

K48-linked diubiquitin = K48-linked diubiquitin (Homo sapiens, UniProt P0CG48)
K11-linked diubiquitin = K11-linked diubiquitin (Homo sapiens, UniProt P0CG48)

Kd (Dsk2-UBL 2-77): 48 µM
Kd (Ubp6-UBL 2-81): 104 µM
B1: Rpn1 214-355 (protein)
chain: HNGEEDAVDLLLEIESIDKLPQFVDENTFQRVCQYMVACVPLLPPPEDVAFLKTAYSIYLSQNELTDAIALAVRLGEEDMIRSVFDATSDPVMHKQLAYILAAQKTSFEYEGVQDIIGNGKLSEHFLYLAKELNLTGPKVPE

Kd (K48-linked diubiquitin): 288 µM
B2: Rpn1 214-355 (protein)
chain: B1 chain
modifications: K48-linked Ub2, distal Ub 15N-enriched

Kd (K11-linked diubiquitin): 44 µM
B3: Rpn1 214-355 (protein)
chain: B1 chain
modifications: K11-linked Ub2, distal Ub 15N-enriched

Kd (K11-linked diubiquitin): 42 µM
B4: Rpn1 214-324 (protein)
chain: HNGEEDAVDLLLEIESIDKLPQFVDENTFQRVCQYMVACVPLLPPPEDVAFLKTAYSIYLSQNELTDAIALAVRLGEEDMIRSVFDATSDPVMHKQLAYILAAQKTSFEYE
modifications: K11-linked Ub2, distal Ub 15N-enriched
